Reference: the supplement of paper PMC7877785
± gives the uncertainty stated by the source.

Test: self-splicing fitness, log relative to wild type (ln ratio); higher = more splicing; Tetrahymena group I intron in knt gene, E. coli kanamycin selection, DiMSum; sequences stand for … in CUCUCU…GGAGGGAAAAGUUAUCAGGCAUGCACCUGGUAGCUAGUCUUUAAACCAAUAGAUUGCAUCGGUUUAAAAGGCAAGACCGUCAAAUUGCGGGAAAGGGGUCAACAGCCGUUCAGUACCAAGUCUCAGGGGAAACUUUGAGAUGGCCUUGCAAAGGGUAUGGUAAUAAGCUGACGGACAUGGUCCUAACCACGCAGCCAAGUCCUAAGUCAACAGAUCUUCUGUUGAUAUGGAUGCAGUUCACAGACUAAAUGUCGGUCGGGGAAGAUGUAUUCUUCUCAUAAGAUAUAGUCGGACCUCUCCUUAAUGGGAGCUAGCGGAUGAAGUGAUGCAACACUGGAGCCGCUGGGAACUAAUUUGUAUGCGAAAGUAUAUUGAUUAGUUUUGGAGUACUCGUGGUCG
How it was run: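 DiMSum derived fitness as the error-weighted combination of fold changes across replicates, kanamycin versus no kanamycin, normalised to wild type. E. coli BL21(DE3) held the library, which randomised all eight P1ex-region intron nucleotides within the knt kanamycin-resistance gene on pET-22b(+). Six replicate transformations grew overnight at 37°C or 30°C on LB agar with or without 25 μg/mL kanamycin, also containing 100 μg/mL carbenicillin, 50 μM IPTG and 0.2% rhamnose, and pooled colonies were amplicon-sequenced on an Illumina HiSeq 2500.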

Sequence | self-splicing fitness (ln) (30 °C) | self-splicing fitness (ln) (37 °C)
UCAGAGCAAUAUUACGACAC | -2.63 ± 0.37 | -0.191 ± 0.45
AGGCAGCAAUAUUACGUCGG | -0.675 ± 0.08 | -0.941 ± 0.09
AAGCAGCAAUAUUACGCGAU | -3.31 ± 0.18 | -3.25 ± 0.18
CCGAAGCAAUAUUACGGGGU | -4.25 ± 0.22 | -2.6 ± 0.21
CUGAAGCAAUAUUACGAACU | -3.64 ± 0.19 | -2.37 ± 0.23
GCGUAGCAAUAUUACGCGUG | -4.06 ± 0.28 | -2.71 ± 0.15
UGGUAGCAAUAUUACGGCCC | -0.562 ± 0.18 | -0.000115 ± 0.21
CUUAAGCAAUAUUACGGAAU | -3.96 ± 0.31 | -2.29 ± 0.31
CCUGAGCAAUAUUACGGACC | – | -3.02 ± 0.43
GCAAAGCAAUAUUACGUGUC | -4.47 ± 0.18 | -1.84 ± 0.12
AUCCAGCAAUAUUACGAUUG | -4.83 ± 0.34 | -3.03 ± 0.24
AAAGAGCAAUAUUACGCCUG | -2.57 ± 0.28 | -1.76 ± 0.33
AGUUAGCAAUAUUACGCAUG | -1.91 ± 0.078 | -1.15 ± 0.1
AUGCAGCAAUAUUACGCUAG | -3.93 ± 0.26 | -2.49 ± 0.23
CUAGAGCAAUAUUACGAGAA | -2.62 ± 0.35 | -2.5 ± 0.45
GCAUAGCAAUAUUACGACCA | -0.207 ± 0.11 | -0.544 ± 0.14
AAUAAGCAAUAUUACGAUCU | 0.041 ± 0.069 | 0.493 ± 0.087
AGGGAGCAAUAUUACGCCCG | -3.31 ± 0.5 | -0.737 ± 0.49
ACACAGCAAUAUUACGUGUC | -3.6 ± 0.12 | -3.69 ± 0.2
CAGAAGCAAUAUUACGUAAG | -0.12 ± 0.057 | 0.772 ± 0.074

Sequence | self-splicing fitness (ln) (30 °C) | self-splicing fitness (ln) (37 °C)
UGGCAGCAAUAUUACGUGUC | -3.85 ± 0.19 | -2.17 ± 0.19
GAGCAGCAAUAUUACGUAUU | -2.62 ± 0.066 | -1.32 ± 0.075
AAACAGCAAUAUUACGACAU | -0.514 ± 0.011 | -0.112 ± 0.032
GGACAGCAAUAUUACGCGUU | -3.68 ± 0.16 | -2.62 ± 0.2
GCGCAGCAAUAUUACGUCAC | -4.04 ± 0.17 | -1.65 ± 0.11
ACGUAGCAAUAUUACGUCUU | -3.76 ± 0.16 | -1.92 ± 0.15
AUGAAGCAAUAUUACGCGCA | 0.498 ± 0.096 | 0.526 ± 0.12
CUGGAGCAAUAUUACGGAAC | -3.5 ± 0.33 | -2.64 ± 0.3
ACUGAGCAAUAUUACGUCAU | -4.08 ± 0.39 | -2.26 ± 0.19
GAACAGCAAUAUUACGCCCG | -2.49 ± 0.22 | -0.797 ± 0.2
GGUCAGCAAUAUUACGCCGC | -2.96 ± 0.26 | -2.62 ± 0.36
CACAAGCAAUAUUACGCUGU | -3.78 ± 0.17 | -2.57 ± 0.18
AUAGAGCAAUAUUACGCGAU | -2.28 ± 0.35 | -2 ± 0.26
GCCGAGCAAUAUUACGGUCG | -3.63 ± 0.21 | –
AGUAAGCAAUAUUACGGGCU | -1.28 ± 0.12 | -1.6 ± 0.17
GGGUAGCAAUAUUACGUCAA | -0.501 ± 0.13 | -0.61 ± 0.21
AACUAGCAAUAUUACGUCCU | -0.111 ± 0.092 | 1.04 ± 0.12
AAUUAGCAAUAUUACGUCUU | 0.444 ± 0.091 | 0.46 ± 0.098
ACAUAGCAAUAUUACGCCAA | – | -2.32 ± 0.28
